Reference: patent US20210292396A1

Assays:
Assay in all cases: cell-based or functional assay
[1] = biological target: Env of HIV isolate 3016.v5.c45 (clade D) (HIV)
[2] = biological target: Env of HIV isolate 6405.v4.c34 (clade D) (HIV)
[3] = biological target: Env of HIV isolate 6631.v3.c10 (clade C) (HIV)
[4] = biological target: Env of HIV isolate 89.6.DG (clade B) (HIV)
[5] = biological target: Env of HIV isolate CAP256.206.C9 (clade C) (HIV)
[6] = biological target: Env of HIV isolate CH070.1 (clade BC) (HIV)
[7] = biological target: Env of HIV isolate MI369.A5 (clade A) (HIV)
[8] = biological target: Env of HIV isolate QH0692.42 (clade B) (HIV)
[9] = biological target: Env of HIV isolate SF162.LS (clade B) (HIV)
[10] = biological target: Env of HIV isolate T266-60 (clade AG) (HIV)
[11] = biological target: Env of HIV isolate WITO.33 (clade B) (HIV)
[12] = biological target: Env of HIV isolate X2131.C1.B5 (clade G) (HIV)
[13] = biological target: Env of HIV isolate X2278.C2.B6 (clade B) (HIV)
[14] = biological target: Env of HIV isolate ZM233.6 (clade C) (HIV)
[15] = biological target: HIV Env of isolate 0815.v3.c3 (HIV)
[16] = biological target: HIV Env of isolate 263-8 (HIV)
[17] = biological target: HIV Env of isolate 3988.25 (HIV)
[18] = biological target: HIV Env of isolate 426c (HIV)
[19] = biological target: HIV Env of isolate 6405.v4.c34 (HIV)
[20] = biological target: HIV Env of isolate 89.6.DG (HIV)
[21] = biological target: HIV Env of isolate A03349M1.vrc4a (HIV)
[22] = biological target: HIV Env of isolate BJOX002000.03.2 (HIV)
[23] = biological target: HIV Env of isolate CAP256.206.C9 (HIV)
[24] = biological target: HIV Env of isolate CH070.1 (HIV)
[25] = biological target: HIV Env of isolate CNE14 (HIV)
[26] = biological target: HIV Env of isolate CNE21 (HIV)
[27] = biological target: HIV Env of isolate CNE3 (HIV)
[28] = biological target: HIV Env of isolate CNE58 (HIV)
[29] = biological target: HIV Env of isolate DU151.02 (HIV)
[30] = biological target: HIV Env of isolate DU156.12 (HIV)
[31] = biological target: HIV Env of isolate DU172.17 (HIV)
[32] = biological target: HIV Env of isolate JRCSF.JB (HIV) (UniProt P20871)
Sequence of HIV Env of isolate JRCSF.JB (HIV) (P20871 32-848 limits assumed): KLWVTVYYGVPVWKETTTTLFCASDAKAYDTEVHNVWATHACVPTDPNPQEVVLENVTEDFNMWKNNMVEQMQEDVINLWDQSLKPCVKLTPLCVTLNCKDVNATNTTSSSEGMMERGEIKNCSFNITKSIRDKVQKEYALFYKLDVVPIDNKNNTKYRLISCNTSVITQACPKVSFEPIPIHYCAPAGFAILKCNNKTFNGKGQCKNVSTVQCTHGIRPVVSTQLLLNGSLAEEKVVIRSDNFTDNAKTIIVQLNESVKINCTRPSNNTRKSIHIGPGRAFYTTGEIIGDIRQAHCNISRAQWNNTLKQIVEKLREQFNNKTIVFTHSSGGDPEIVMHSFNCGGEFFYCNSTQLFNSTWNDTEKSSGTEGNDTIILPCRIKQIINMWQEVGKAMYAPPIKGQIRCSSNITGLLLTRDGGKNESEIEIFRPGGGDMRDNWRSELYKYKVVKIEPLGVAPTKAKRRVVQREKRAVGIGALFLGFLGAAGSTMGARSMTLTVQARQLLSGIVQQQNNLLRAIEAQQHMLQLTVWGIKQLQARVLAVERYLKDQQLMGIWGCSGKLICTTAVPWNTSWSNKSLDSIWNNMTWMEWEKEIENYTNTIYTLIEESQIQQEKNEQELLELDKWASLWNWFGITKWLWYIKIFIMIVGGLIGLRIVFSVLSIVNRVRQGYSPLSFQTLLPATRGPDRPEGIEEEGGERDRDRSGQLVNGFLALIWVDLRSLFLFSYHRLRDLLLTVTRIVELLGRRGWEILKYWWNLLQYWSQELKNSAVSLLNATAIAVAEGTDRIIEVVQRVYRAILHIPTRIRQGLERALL

[33] = biological target: HIV Env of isolate KER2008.12 (HIV)
[34] = biological target: HIV Env of isolate MB539.2B7 (HIV)
[35] = biological target: HIV Env of isolate MN.3 (HIV)
[36] = biological target: HIV Env of isolate Q769.h5 (HIV)
[37] = biological target: HIV Env of isolate RW020.2 (HIV)
[38] = biological target: HIV Env of isolate T251-18 (HIV)
[39] = biological target: HIV Env of isolate T255-34 (HIV)
[40] = biological target: HIV Env of isolate T278-50 (HIV)
[41] = biological target: HIV Env of isolate ZM214.15 (HIV)

In the case of PGT121 (antibody), the IC50, pseudovirus neutralization [1] is reported as over 50 µg/mL, the IC50, pseudovirus neutralization [2] is reported as 0.042 µg/mL and the IC50, pseudovirus neutralization [3] is reported as over 50 µg/mL. For the same substance, the IC50, pseudovirus neutralization [4] was 0.0337 µg/mL, the IC50, pseudovirus neutralization [5] was 0.02 µg/mL and the IC50, pseudovirus neutralization [6] was 0.0137 µg/mL. It also gave an IC50, pseudovirus neutralization [7] of 0.0507 µg/mL, an IC50, pseudovirus neutralization [8] of 0.972 µg/mL and an IC50, pseudovirus neutralization [9] of 0.00733 µg/mL. For the same substance, the IC50, pseudovirus neutralization [10] was 0.143 µg/mL, the IC50, pseudovirus neutralization [11] was 0.479 µg/mL and the IC50, pseudovirus neutralization [12] was 0.013 µg/mL. The IC50, pseudovirus neutralization [13] was 0.026 µg/mL, the IC50, pseudovirus neutralization [14] was 0.731 µg/mL and the IC80 [15] was 0.112 µg/mL. For the same substance, the IC80 [16] was 2.5 µg/mL, the IC80 [17] was 0.0287 µg/mL and the IC80, pseudovirus neutralization [18] was over 50 µg/mL. For the same substance, the IC80, pseudovirus neutralization [19] was 0.136 µg/mL, the IC80 [20] was 0.0783 µg/mL and the IC80, pseudovirus neutralization [21] was 0.359 µg/mL. The IC80 [22] was 0.068 µg/mL, the IC80, pseudovirus neutralization [23] was 0.046 µg/mL and the IC80, pseudovirus neutralization [24] was 0.0423 µg/mL. It also gave an IC80 [25] of 0.0243 µg/mL, an IC80, pseudovirus neutralization [26] of 0.0383 µg/mL and an IC80 [27] of over 50 µg/mL. For the same substance, the IC80, pseudovirus neutralization [28] was over 50 µg/mL, the IC80, pseudovirus neutralization [29] was 0.0283 µg/mL and the IC80, pseudovirus neutralization [30] was 0.0367 µg/mL. It also gave an IC80, pseudovirus neutralization [31] of 0.41 µg/mL, an IC80 [32] of 0.162 µg/mL and an IC80 [33] of 6.55 µg/mL. The IC80 [34] was over 50 µg/mL, the IC80 [35] was over 50 µg/mL and the IC80 [36] was over 50 µg/mL. For the same substance, the IC80 [37] was 0.0177 µg/mL, the IC80 [38] was 23.2 µg/mL and the IC80 [39] was over 50 µg/mL. For the same substance, the IC80 [40] was over 50 µg/mL and the IC80, pseudovirus neutralization [41] was 1.57 µg/mL.
